Reference: patent US12583913B2, “Antibody specific to Staphylococcus aureus, therapeutic method and detection method using same” (priority 2019, dated 2026)

Legend:
GMA-2105 = assay: Solid phase competitive inhibition ELISA with variant staphylocoagulase peptides; assay type: binding; conditions: peptide incubated with GMA-2105 in solution overnight at 4 degrees C
From the text: There are reported strain specific sequence differences at residue positions 8 and 9 of staphylocoagulase (SEQ ID. No.: 2). […] Wantabe, et al., Genetic Diversity of Staphylocoagulase Genes (coa): Insight into the evolution of variable chromosomal virulence factors in Staphylococcus aureus. PLoS ONE 2009; 4(5): 1-11, incorporated herein by reference in its entirety. […] 9 (“Mutated Peptide Ala 8”), position 9 of SEQ ID NO. 9 (“Mutated Peptide Ala 9”), and position 8 and 9 of SEQ ID NO.: 9 (“Mutated Peptide Ala 8 & 9”) (see FIG. 13). We measured the binding of each synthetic peptide (Mutated Peptide Ala 8, Mutated Peptide Ala 9, and Mutated Peptide Ala 8 & 9) to GMA-2105 in solution.
We tested binding of Mutated Peptide Ala 8, Mutated Peptide Ala 9, and Mutated Peptide Ala 8 & 9 to GMA-2105 in a solid phase competitive inhibition assay. GMA-2105 was incubated with increasing concentrations of each of Mutated Peptide Ala 8, Mutated Peptide Ala 9, and Mutated Peptide Ala 8 & 9 (referred to hereafter as “GMA-2105—Mutated Peptide samples”) in solution overnight at 4 degrees C. The incubation was followed by transfer of the GMA-2105—Mutated Peptide samples to wells coated with the non-mutated peptide, […] (SEQ ID. No.: 9) and blocked with 0.1% BSA PBS. After a 30-minute incubation, wells were washed with PBS containing 0.05% TWEEN 20, followed by addition of goat anti-mouse secondary antibody conjugated to horseradish peroxidase. Substrate ortho-phenylenediamine conversion to product was measured at 490 nm using a spectrophotometer. The negative control as was a purified irrelevant synthetic peptide.

[1] = molecular target: T1, staphylocoagulase peptide SC(1-10) […] (SEQ ID NO: 9) (Staphylococcus aureus, UniProt P17855); assay: Solid-phase ELISA on staphylocoagulase peptide; assay type: binding, S. aureus
T1 construct: made in house; host or cells: chemical synthesis
Protocol: Two additional 50 μg injections (peptide-KLH conjugate in incomplete Freunds adjuvant) were given on days 61 and 111. A serum sample from each mouse was collected on Day 122 and the antibody titer measured by solid-phase Enzyme Linked Immunosorbant Assay (ELISA) using the staphylocoagulase and/or vWbp peptide conjugated to ovalbumin coated on 96-well ELISA plates at 2 ug/ml. Uncoated areas of the wells were blocked with albumin from bovine serum (BSA). The wells were then incubated with dilutions of the mouse serum to test whether the serum contained antibodies to the staphylocoagulase and/or vWbp peptide. Bound antibodies were detected with anti-mouse IgG secondary antibody conjugated to horseradish peroxidase. The plates were then incubated with o-phenylenediamine (OPD) substrate which undergoes a color change in the presence of HRP the intensity of which can be measured using absorption at 490 nm wavelength in a microplate reader. […]
Purified chimeric GMA-2105 and murine GMA-2105 antibody were tested against staphylocoagulase peptide […] […] Antibody-antigen complex was detected using a goat anti-mouse secondary antibody conjugated to horseradish peroxidase or goat anti-human secondary antibody conjugated to horseradish peroxidase. Substrate ortho-phenylene diamine conversion to product was measured at 490 nm using a spectrophotometer

staphylocoagulase = assay: Western blot detection of staphylocoagulase in cultured bacteria supernatants; assay type: binding; conditions: supernatants of S. aureus strains COL and MW2 (MRSA)
From the text: Lanes A, B, and C contain concentrated (10×) supernatants from identically cultured bacteria. Lane A: S. saprophyticus (coagulase negative bacterium control); Lane B: S. aureus strain COL (MRSA); Lane C: S. aureus strain MW2 (MRSA); Lane D: media blank; Lane E: staphylocoagulase peptide conjugated to ovalbumin (SEQ ID NO.: 9).

[2] = molecular target: T2, BODIPY-labeled staphylocoagulase SC (S7C) (1-325) (Staphylococcus aureus, UniProt P17855, S33C); assay: Equilibrium binding of BODIPY-labeled staphylocoagulase, fluorescence titration in solution; design: species or system S. aureus
T2 construct: BODIPY fluorophore (chemical label)
Protocol: In solution, the antibody bound Ser 7 to Cys mutant of SC(1-325). Binding studies were done using the BODIPY-labeled staphylocoagulase SC (S7C) (1-325) (SEQ ID NO.: 2, positions 1-325 with Cys at position 7). The change of fluorescence upon antibody binding is measured as a function of the unlabeled ligand concentration and fitting the data to the quadratic binding equation gives the dissociation constant (KD), and the stoichiometry (n). Panizzi, et al., Fibrinogen substrate recognition by staphylocoagulase-(pro)thrombin complexes, J. Biol. Chem. 2006; 281:118-95.
Direct binding of BODIPY-SC(S7C) at 27 nM (●) and 130 nM (∘) probe titrated with GMA-2105 caused fluorescence increase, whereas unlabeled SC(1-246) (triangles) displaced BODIPY-SC(S7C) labeled staphylocoagulase from binding the antibody. Simultaneous fit of all datasets provide the Kd for the unmodified competitor to the antibody.
Concentrations were: BODIPY-staphylocoagulase (1-325) at 27 nM (●) and 130 nM (∘) titrated with GMA-2105 and unlabeled staphylocoagulase (1-246)(residues 1-246 of SEQ ID No. 2).
In FIG. 29, BODIPY®-labeled staphylocoagulase fragment (1-325) at 27 nM (●) and 130 nM (∘) titrated with chimeric GMA-2105 in solution in the presence of unlabeled staphylocoagulase fragment (1-246) (▴).

SC(1-246)●prothrombin^3Q = SC(1-246)●prothrombin^3Q (Staphylococcus aureus, UniProt P17855); assay: Inhibition of prothrombin^3Q activation by SC(1-246), S2238 hydrolysis; assay type: biochemical, S. aureus; conditions: read-out: affinity of inhibition of prothrombin^3Q activation by SC(1-246); prothrombin 1 nM, SC(1-246) 5.6 nM and 28 nM

Mutated Peptide Ala 8 & 9: synthetic peptide with alanine substitutions at positions 8 and 9 of SEQ ID NO. 9 (IVTKDYSAAS)
inhibition of GMA-2105 binding to wells coated with […] (GMA-2105): inhibited binding of antibody

Mutated Peptide Ala 8: synthetic peptide with alanine substitution at position 8 of SEQ ID NO. 9 (IVTKDYSAES)
inhibition of GMA-2105 binding to wells coated with […] (GMA-2105): inhibited binding of antibody

Mutated Peptide Ala 9: synthetic peptide with alanine substitution at position 9 of SEQ ID NO. 9 (IVTKDYSKAS)
inhibition of GMA-2105 binding to wells coated with […] (GMA-2105): inhibited binding of antibody

B1: GMA-2105 F(ab): fragment antigen-binding fragment of GMA-2105 (antibody, V domains shown)
VH: EVKLEESGGGLVQPGGSMKLSCAASGFTFSDAWMDWVRQSPEKGLEWVAEIRTKANNHATYYAESVKGRFTISRDDSKSSVYLQMNSLRAEDTGIYYCTNVYYGNNDVKDYWGQGTSVTVSPAS
VL: DIVMTQSQKFMSTSVGDRVSVTCKASQNVDIYVAWYQQKPGQSPKALIYSASYRFSGVPDRFTGSGSGTDFTLSISNVQSEDLAEYFCQQYNNYPYTFGGGTKLEIKRADAAPTVSIFPPSSEGRI
binding to staphylocoagulase peptide in ELISA [1]: capable of binding | binding of staphylocoagulase in cultured bacteria, Western blot (staphylocoagulase): bind staphylocoagulase

B2: chimeric GMA-2105 (antibody, V domains shown)
VH: EVKLEESGGGLVQPGGSMKLSCAASGFTFSDAWMDWVRQSPEKGLEWVAEIRTKANNHATYYAESVKGRFTISRDDSKSSVYLQMNSLRAEDTGIYYCTNVYYGNNDVKDYWGQGTSVTVSPAS
VL: DIVMTQSQKFMSTSVGDRVSVTCKASQNVDIYVAWYQQKPGQSPKALIYSASYRFSGVPDRFTGSGSGTDFTLSISNVQSEDLAEYFCQQYNNYPYTFGGGTKLEIKRADAAPTVSIFPPSSEGRI
binding characteristics compared with murine GMA-2105 ([2]; FIG. 30): essentially identical | stoichiometry ([2]; chimeric antibody): 2 mol staphylocoagulase/mol chimeric antibody | binding to staphylocoagulase peptide in ELISA [1]: binding

B3: GMA-2105: inhibitory mouse anti-staphylocoagulase monoclonal antibody raised against peptide […]; VH SEQ ID NO 6, VL SEQ ID NO 8 (protein)
chain 1: EVKLEESGGGLVQPGGSMKLSCAASGFTFSDAWMDWVRQSPEKGLEWVAEIRTKANNHATYYAESVKGRFTISRDDSKSSVYLQMNSLRAEDTGIYYCTNVYYGNNDVKDYWGQGTSVTVSPAS
chain 2: DIVMTQSQKFMSTSVGDRVSVTCKASQNVDIYVAWYQQKPGQSPKALIYSASYRFSGVPDRFTGSGSGTDFTLSISNVQSEDLAEYFCQQYNNYPYTFGGGTKLEIKRADAAPTVSIFPPSSEGRI
Kd (SC(1-246)●prothrombin^3Q): 0.9 nM
